{"source": "patent US10745365B2", "about": "“Luminogenic and fluorogenic compounds and methods to detect molecules or conditions” (Promega Corporation, priority 2005, dated 2020)", "key": {"[1]": {"substrate": "NCCCOc1ccc2nc(C3=N[C@@H](C(=O)O)CS3)sc2c1", "assay": "Two-step bioluminogenic MAO B substrate assay", "format": "biochemical, human"}, "[2]": {"substrate": "CNCCCOc1ccc2nc(C3=N[C@@H](C(=O)O)CS3)ccc2c1", "assay": "Two-step bioluminogenic MAO B substrate assay", "format": "biochemical, human", "conditions": "other: fit of Tables 23-24"}, "[3]": {"substrate": "CNCCCOc1ccc2c(C)cc(=O)oc2c1", "assay": "Fluorogenic MAO B substrate assay", "format": "biochemical, human", "conditions": "other: fit of Table 31", "procedure": "(§1) The fluorescent signal was then measured (excitation/emission=355/460 nm) on a Fluoroskan Ascent plate fluorometer.\n(§2) This 90 μl contained 35 μl 200 mM Tricine pH 8.3, 35 μl 200 mM Tricine pH 8.7 (or water), 10 μl 200 mM MgSO4, and 10 μl of each substrate dilution."}, "[4]": {"substrate": "CNCCCOc1ccc2c(C)cc(=O)oc2c1", "assay": "Fluorogenic MAO A substrate assay", "format": "biochemical, human", "conditions": "other: fit of Table 31", "procedure": "as §1, §2"}, "[5]": {"substrate": "NCCCOc1ccc2nc(C3=N[C@@H](C(=O)O)CS3)sc2c1", "assay": "purified protein, by the assay type", "conditions": "other: fit of Tables 23-24"}, "[6]": {"substrate": "CNCCCOc1ccc2nc(C3=N[C@@H](C(=O)O)CS3)ccc2c1", "assay": "purified protein, by the assay type"}, "[7]": {"substrate": "CNCCCOc1ccc2nc(C3=N[C@@H](C(=O)O)CS3)ccc2c1", "assay": "Two-step luminescent FMO 3 assay", "format": "biochemical, human", "conditions": "other: fit of Table 33"}, "[8]": {"substrate": "O=C(O)[C@H]1O[C@@H](Oc2ccc3nc(C4=N[C@@H](C(=O)O)CS4)sc3c2)[C@H](O)[C@@H](O)[C@@H]1O", "assay": "Beta-glucuronidase (GUS) assay", "format": "biochemical, human", "conditions": "other: 50 mM MES, pH 6.3", "procedure": "The source of the human enzyme was Sigma-Aldrich. GUS was incubated with the substrate in 50 mM MES, pH 6.3, for 15 minutes."}}, "data": [{"protein": "human recombinant monoamine oxidase B (MAO B) (Homo sapiens) (protein, purchased Sigma Chemical Company M-7441; host or cells: baculovirus infected insect cells (microsomes)) MSNKCDVVVVGGGISGMAAAKLLHDSGLNVVVLEARDRVGGRTYTLRNQKVKYVDLGGSYVGPTQNRILRLAKELGLETYKVNEVERLIHHVKGKSYPFRGPFPPVWNPITYLDHNNFWRTMDDMGREIPSDAPWKAPLAEEWDNMTMKELLDKLCWTESAKQLATLFVNLCVTAETHEVSALWFLWYVKQCGGTTRIISTTNGGQERKFVGGSGQVSERIMDLLGDRVKLERPVIYIDQTRENVLVETLNHEMYEAKYVISAIPPTLGMKIHFNPPLPMMRNQMITRVPLGSVIKCIVYYKEPFWRKKDYCGTMIIDGEEAPVAYTLDDTKPEGNYAAIMGFILAHKARKLARLTKEERLKKLCELYAKVLGSLEALEPVHYEEKNWCEEQYSGGCYTTYFPPGILTQYGRVLRQPVDRIYFAGTETATHWSGYMEGAVEAGERAAREILHAMGKIPEDEIWQSEPESVDVPAQPITTTFLERHLPSVPGLLRLIGLTTIFSATALGFLAHKRGLLVRV", "values": [{"measurement": "Km", "setting": "[1]; other: fit of Table 21", "value": "24 ± 1", "unit": "µM"}, {"measurement": "Km", "setting": "[1]; other: fit of Tables 23-24", "value": 1880, "unit": "µM"}, {"measurement": "Km", "setting": "[2]", "value": 650, "unit": "µM"}, {"measurement": "Km", "setting": "[3]", "value": "16 ± 1", "unit": "µM"}]}, {"protein": "human recombinant monoamine oxidase A (MAO A) (Homo sapiens) (protein, purchased Sigma Chemical Company M-7316; host or cells: baculovirus infected insect cells (microsomes)) MENQEKASIAGHMFDVVVIGGGISGLSAAKLLTEYGVSVLVLEARDRVGGRTYTIRNEHVDYVDVGGAYVGPTQNRILRLSKELGIETYKVNVSERLVQYVKGKTYPFRGAFPPVWNPIAYLDYNNLWRTIDNMGKEIPTDAPWEAQHADKWDKMTMKELIDKICWTKTARRFAYLFVNINVTSEPHEVSALWFLWYVKQCGGTTRIFSVTNGGQERKFVGGSGQVSERIMDLLGDQVKLNHPVTHVDQSSDNIIIETLNHEHYECKYVINAIPPTLTAKIHFRPELPAERNQLIQRLPMGAVIKCMMYYKEAFWKKKDYCGCMIIEDEDAPISITLDDTKPDGSLPAIMGFILARKADRLAKLHKEIRKKKICELYAKVLGSQEALHPVHYEEKNWCEEQYSGGCYTAYFPPGIMTQYGRVIRQPVGRIFFAGTETATKWSGYMEGAVEAGERAAREVLNGLGKVTEKDIWVQEPESKDVPAVEITHTFWERNLPSVSGLLKIIGFSTSVTALGFVLYKYKLLPRS", "values": [{"measurement": "Km", "setting": "[4]", "value": "21 ± 1", "unit": "µM"}, {"measurement": "Km", "setting": "[5]", "value": 1320, "unit": "µM"}, {"measurement": "Km", "setting": "[6]; other: fit of Table 22", "value": "1560 ± 130", "unit": "µM"}, {"measurement": "Km", "setting": "[6]; other: fit of Tables 23-24", "value": 1700, "unit": "µM"}]}, {"protein": "human recombinant flavin-containing monooxygenase 3 (FMO 3) (Homo sapiens) (protein, purchased Sigma Chemical Company F-5053; host or cells: baculovirus infected insect cells (microsomes)) MGKKVAIIGAGVSGLASIRSCLEEGLEPTCFEKSNDIGGLWKFSDHAEEGRASIYKSVFSNSSKEMMCFPDFPFPDDFPNFMHNSKIQEYIIAFAKEKNLLKYIQFKTFVSSVNKHPDFATTGQWDVTTERDGKKESAVFDAVMVCSGHHVYPNLPKESFPGLNHFKGKCFHSRDYKEPGVFNGKRVLVVGLGNSGCDIATELSRTAEQVMISSRSGSWVMSRVWDNGYPWDMLLVTRFGTFLKNNLPTAISDWLYVKQMNARFKHENYGLMPLNGVLRKEPVFNDELPASILCGIVSVKPNVKEFTETSAIFEDGTIFEGIDCVIFATGYSFAYPFLDESIIKSRNNEIILFKGVFPPLLEKSTIAVIGFVQSLGAAIPTVDLQSRWAAQVIKGTCTLPSMEDMMNDINEKMEKKRKWFGKSETIQTDYIVYMDELSSFIGAKPNIPWLFLTDPKLAMEVYFGPCSPYQFRLVGPGQWPGARNAILTQWDRSLKPMQTRVVGRLQKPCFFFHWLKLFAIPILLIAVFLVLT", "values": [{"measurement": "Km", "setting": "[7]", "value": "200 ± 20", "unit": "µM"}]}, {"protein": "beta-glucuronidase (GUS) (Homo sapiens) (protein, purchased Sigma-Aldrich) LQGGMLYPQESPSRECKELDGLWSFRADFSDNRRRGFEEQWYRRPLWESGPTVDMPVPSSFNDISQDWRLRHFVGWVWYEREVILPERWTQDLRTRVVLRIGSAHSYAIVWVNGVDTLEHEGGYLPFEADISNLVQVGPLPSRLRITIAINNTLTPTTLPPGTIQYLTDTSKYPKGYFVQNTYFDFFNYAGLQRSVLLYTTPTTYIDDITVTTSVEQDSGLVNYQISVKGSNLFKLEVRLLDAENKVVANGTGTQGQLKVPGVSLWWPYLMHERPAYLYSLEVQLTAQTSLGPVSDFYTLPVGIRTVAVTKSQFLINGKPFYFHGVNKHEDADIRGKGFDWPLLVKDFNLLRWLGANAFRTSHYPYAEEVMQMCDRYGIVVIDECPGVGLALPQFFNNVSLHHHMQVMEEVVRRDKNHPAVVMWSVANEPASHLESAGYYLKMVIAHTKSLDPSRPVTFVSNSNYAADKGAPYVDVICLNSYYSWYHDYGHLELIQLQLATQFENWYKKYQKPIIQSEYGAETIAGFHQDPPLMFTEEYQKSLLEQYHLGLDQKRRKYVVGELIWNFADFMTEQSPTRVLGNKKGIFTRQRQPKSAAFLLRERYWKIANETRYPHSVAKSQCLENSLFT", "values": [{"measurement": "Km", "setting": "[8]", "value": "180 ± 30", "unit": "µM"}]}]}
